Paper PMC10998826 (EJNMMI Research, 2024)

Assay: In-vivo stability in blood (radio-HPLC of plasma, % intact peptide)
Parameters: species or system humans
Conditions: for Stability (% of initial signal): in-vivo, plasma radio-HPLC
Procedure: Patients were allowed a light breakfast at the day of each infusion. […] Entresto® was given at an oral dose of 100 mg, containing 48.6 mg sacubitril and 51.4 mg valsartan 2 h before the start of one of the two infusions. Vital signs were recorded, and a 12-lead electrocardiogram was obtained before and after each injection. Adverse events were recorded and graded according to Common Terminology Criteria for Adverse Events (CTCAE) version 4.03.
Blood samples were collected in polypropylene tubes containing ethylenediaminetetraacetic acid at 5, 15, 30 and 60 min after administration of ^177Lu-PP-F11N. The tubes were placed on ice. Plasma was separated by centrifugation (4000 g for 10 min) and protein precipitation followed using cold methanol (v/v 1/2). The mixture was stirred to favor precipitation of proteins and then centrifuged at 4000 g for 10 min. The supernatant was collected and filtered through a […] filter (Millex®-GV, Merck Millipore, Bedford, MA, USA). The clear solution was diluted with H2O (1:1) and then analyzed by radio-high performance liquid chromatography (HPLC) to determine the percentage of intact peptide over time. HPLCs were performed on the Agilent 1260 infinity instrument (Agilent, Santa Clara, United States) connected to a GABI radioactivity-HPLC-flow-monitor γ-spectrometer (Elysia-raytest, Straubenhardt, Germany).

Structure (SMILES): CSCC[C@H](NC(=O)[C@H](Cc1c[nH]c2ccccc12)NC(=O)CNC(=O)[C@H](Cc1ccc(O)cc1)NC(=O)[C@H](C)NC(=O)[C@@H](CCC(=O)O)NC(=O)[C@@H](CCC(=O)O)NC(=O)[C@@H](CCC(=O)O)NC(=O)[C@@H](CCC(=O)O)NC(=O)[C@@H](CCC(=O)O)NC(=O)[C@@H](CCC(=O)O)NC(=O)CN1CCN(CC(=O)O)CCN(CC(=O)O)CCN(CC(=O)O)CC1)C(=O)N[C@@H](CC(=O)O)C(=O)N[C@@H](Cc1ccccc1)C(N)=O [[^177Lu]Lu-PP-F11N, [^177Lu]Lu-DOTA-(DGlu)6-Ala-Tyr-Gly-Trp-Met-Asp-Phe-NH2, metal not drawn]
- Median stability with Entresto premedication compared to without (5 min p.i.): 1.1 fold
- Median stability with Entresto premedication compared to without (15 min p.i.): 1.1 fold
- Median stability with Entresto premedication compared to without (30 min p.i.): 1.2 fold
- Median stability with Entresto premedication compared to without (60 min p.i.): 1.6 fold
- Stability (% of initial signal) (5 min p.i., with Entresto premedication (100 mg oral, 2 h before), median of patients): 99.5%
- Stability (% of initial signal) (5 min p.i., without Entresto premedication, median of patients): 94.1%
- Stability (% of initial signal) (15 min p.i., with Entresto premedication (100 mg oral, 2 h before), median of patients): 92.1%
- Stability (% of initial signal) (15 min p.i., without Entresto premedication, median of patients): 80.3%
- Stability (% of initial signal) (15 min p.i., without Entresto premedication, patient 1): 69.9%
- Stability (% of initial signal) (15 min p.i., without Entresto premedication, patient 2): 80.3%
- Stability (% of initial signal) (15 min p.i., without Entresto premedication, patient 3): 91.4%
- Stability (% of initial signal) (15 min p.i., without Entresto premedication, patient 4): 90.5%
- Stability (% of initial signal) (15 min p.i., without Entresto premedication, patient 5): 88.8%
- Stability (% of initial signal) (15 min p.i., without Entresto premedication, patient 6): 90.2%
- Stability (% of initial signal) (15 min p.i., without Entresto premedication, patient 7): 71.4%
- Stability (% of initial signal) (15 min p.i., without Entresto premedication, patient 8): 68.1%
- Stability (% of initial signal) (30 min p.i., with Entresto premedication (100 mg oral, 2 h before), median of patients): 78.5%
- Stability (% of initial signal) (30 min p.i., with Entresto premedication (100 mg oral, 2 h before), patient 1): 78.5%
- Stability (% of initial signal) (30 min p.i., with Entresto premedication (100 mg oral, 2 h before), patient 2): 85.7%
- Stability (% of initial signal) (30 min p.i., with Entresto premedication (100 mg oral, 2 h before), patient 3): 80.6%
- Stability (% of initial signal) (30 min p.i., with Entresto premedication (100 mg oral, 2 h before), patient 5): 85.5%
- Stability (% of initial signal) (30 min p.i., with Entresto premedication (100 mg oral, 2 h before), patient 6): 77.9%
- Stability (% of initial signal) (30 min p.i., with Entresto premedication (100 mg oral, 2 h before), patient 7): 75.3%
- Stability (% of initial signal) (30 min p.i., with Entresto premedication (100 mg oral, 2 h before), patient 8): 79.9%
- Stability (% of initial signal) (30 min p.i., without Entresto premedication, median of patients): 64.5%
- Stability (% of initial signal) (30 min p.i., without Entresto premedication, patient 1): 64.5%
- Stability (% of initial signal) (30 min p.i., without Entresto premedication, patient 2): 72.3%
- Stability (% of initial signal) (30 min p.i., without Entresto premedication, patient 3): 74.8%
- Stability (% of initial signal) (30 min p.i., without Entresto premedication, patient 4): 67.6%
- Stability (% of initial signal) (30 min p.i., without Entresto premedication, patient 6): 60.3%
- Stability (% of initial signal) (30 min p.i., without Entresto premedication, patient 7): 50.1%
- Stability (% of initial signal) (60 min p.i., with Entresto premedication (100 mg oral, 2 h before), median of patients): 64.15%
- Stability (% of initial signal) (60 min p.i., without Entresto premedication, median of patients): 41.1%
